Experimental data reported in PMC8713425 (Journal of medicinal chemistry, 2021).

Target: LGR4 (leucine-rich repeat containing, G protein-coupled receptor 4) (UniProt Q9BXB1 25-951)
Experiment: whole-cell binding assay

B1: R4Fu-WT (wild-type RSPO4 furin domain fused to human IgG1 Fc) (Fc fusion)
chain: VGTGLGGNCTGCIICSEENGCSTCQQRLFLFIRREGIRQYGKCLHDCPPGYFGIRGQEVNRCKKCGATCESCFSQDFCIRCKRQFYLYKGKCLPTCPPSGGGGSGGGGSGGGGS
- Kd: 3.2 nM

B2: R4Fu-Q65R (RSPO4 furin domain Q65R fused to human IgG1 Fc) (Fc fusion)
chain: VGTGLGGNCTGCIICSEENGCSTCQQRLFLFIRREGIRRYGKCLHDCPPGYFGIRGQEVNRCKKCGATCESCFSQDFCIRCKRQFYLYKGKCLPTCPPSGGGGSGGGGSGGGGS
- Kd: 6.2 nM
